Results as given in patent publication US20120100561A1 (published 2012).

Biological target: T1, Flag-PKN3 wt (N-terminal Flag epitope-tagged full-length kinase active human PKN3) (human, UniProt Q6P5Z2 1-889)
T1 construct: Expressed from pcDNA3 in HEK293T or PC3 cells and pulled down with anti-Flag M2 resin; The kinase-dead version carries K588R; also called Flag-tagged PKN3; kinase-active form of PKN3
Assay: anti-Flag M2 co-immunoprecipitation from transfected HEK293T cells, Western blot
Experimental: Thus, PKN3, RhoC and PDK1 form a ternary complex (“PPRC complex.”)
For immunoprecipitations with Flag (FIG. 4B), HEK293T cells (5×10⁵ cells/10-cm tissue culture dish) were either singly transfected or cotransfected with the indicated plasmids (Flag-PKN3 wt [full-length kinase active], Flag-PKN3 kd [kinase-dead PKN3], Myc-RhoA, Myc-RhoB or Myc-RhoC) by FUGENE® transfection reagent. After 6 hours of incubation at 37° C. in a 5% CO₂ incubator, cells were washed twice in serum-free Dulbecco's modified Eagle's medium (DMEM), and fresh medium (DMEM, 10% fetal bovine serum) was added to the cells for a further 48 h of incubation. Cells were washed with phosphate-buffered saline (PBS) and lysed in 0.5 ml of lysis buffer (50 mM Tris-HCl [pH 7.5], 150 mM NaCl, 10 mM β-glycerolphosphate, 10% glycerol, 1% Triton X-100, 1 mM Na₃VO₄, 1 mM NaF, and protease inhibitors [Roche Molecular Biochemicals]) for 30 minutes on ice. […] The beads were then washed three times with TBS buffer (50 mM Tris-HCl [pH 7.5], 150 mM NaCl), and bound proteins were eluted with TBS buffer containing 10% glycerol, 1 mM DTT and 200 μg of Flag peptide (Sigma)/ml. The bound products were visualized by Western blot analysis (FIG. 4).

T1 sequence (Q6P5Z2 other isoform, or with tags, fused parts or gaps limits assumed): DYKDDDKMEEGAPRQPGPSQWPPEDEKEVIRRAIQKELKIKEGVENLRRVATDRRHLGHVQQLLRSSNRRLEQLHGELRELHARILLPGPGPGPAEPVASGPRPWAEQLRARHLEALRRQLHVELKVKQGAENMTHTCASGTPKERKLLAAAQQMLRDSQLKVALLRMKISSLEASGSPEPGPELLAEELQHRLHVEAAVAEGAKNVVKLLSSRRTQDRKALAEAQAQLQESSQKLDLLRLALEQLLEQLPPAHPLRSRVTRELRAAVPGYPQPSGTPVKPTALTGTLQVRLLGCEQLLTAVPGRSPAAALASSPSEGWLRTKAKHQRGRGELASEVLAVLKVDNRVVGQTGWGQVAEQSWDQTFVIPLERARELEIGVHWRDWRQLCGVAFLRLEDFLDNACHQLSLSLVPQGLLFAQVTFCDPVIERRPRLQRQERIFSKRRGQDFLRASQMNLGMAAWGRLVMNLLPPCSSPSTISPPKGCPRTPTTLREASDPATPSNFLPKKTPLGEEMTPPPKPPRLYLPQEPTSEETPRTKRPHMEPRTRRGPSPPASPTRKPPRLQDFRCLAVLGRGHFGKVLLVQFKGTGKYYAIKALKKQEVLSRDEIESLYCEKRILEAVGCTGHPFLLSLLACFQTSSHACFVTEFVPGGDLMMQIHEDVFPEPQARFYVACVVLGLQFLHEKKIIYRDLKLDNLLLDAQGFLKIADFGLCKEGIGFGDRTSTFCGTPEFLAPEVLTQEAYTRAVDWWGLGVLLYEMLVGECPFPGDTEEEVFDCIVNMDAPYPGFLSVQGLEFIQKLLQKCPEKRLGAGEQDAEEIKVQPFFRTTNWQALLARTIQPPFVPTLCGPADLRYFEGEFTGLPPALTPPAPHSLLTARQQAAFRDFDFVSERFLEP

binding result: binds
B1: phosphoinositide-dependent kinase-1 (PDK1) (enzyme, UniProt O15530 1-556, looked up)
chain: MARTTSQLYDAVPIQSSVVLCSCPSPSMVRTQTESSTPPGIPGGSRQGPAMDGTAAEPRPGAGSLQHAQPPPQPRKKRPEDFKFGKILGEGSFSTVVLARELATSREYAIKILEKRHIIKENKVPYVTRERDVMSRLDHPFFVKLYFTFQDDEKLYFGLSYAKNGELLKYIRKIGSFDETCTRFYTAEIVSALEYLHGKGIIHRDLKPENILLNEDMHIQITDFGTAKVLSPESKQARANSFVGTAQYVSPELLTEKSACKSSDLWALGCIIYQLVAGLPPFRAGNEYLIFQKIIKLEYDFPEKFFPKARDLVEKLLVLDATKRLGCEEMEGYGPLKAHPFFESVTWENLHQQTPPKLTAYLPAMSEDDEDCYGNYDNLLSQFGCMQVSSSSSSHSLSASDTGLPQRSGSNIEQYIHDLDSNSFELDLQFSEDEKRLLLEKQAGGNPWHQFVENNLILKMGPVDKRKGLFARRRQLLLTEGPHLYYVDPVNKVLKGEIPWSQELRPEAKNFKTFFVHTPNRTYYLMDPSGNAHKWCRKIQEVWRQRYQSHPDAAVQ
notes: It co-precipitated with Flag-PKN3 from cell lysates
